For orientation: Kd means the equilibrium constant for the complex coming apart.

The source of these data is paper PMC13483431, “Structure and mechanism of the HSV-1 origin-binding protein UL9” (Journal of Virology, 2025).

One series deals with UL9CTD wild type (HSV-1, UniProt P10193 536-851). In words: MST; MST: 50 mM Tris pH 8.0, 150 mM NaCl, 1 mM DTT, 0.05% Tween-20, 40 nM FAM-dsDNA, 25 C; EMSA: 50 mM Tris pH 8.0, 50 mM NaCl, 1 mM DTT, 40 nM FAM-dsDNA, 0.5-3.5 uM protein, 4 C; cryo-EM complex: 20 mM HEPES pH 7.0, 150 mM NaCl, 1 mM DTT. The note with it: protein: recombinant; tags: N-terminal 8xHis; blunt. Background: In EMSA bound probe runs differently from free probe, usually more slowly.

Series [1] concerns the target T1, full-length HSV-1 ICP8 with an N-terminal 8xHis tag (HSV-1, UniProt P04296 1-1196).
T1 construct: also called His-tagged ICP8; source: insect cells (baculovirus, as UL9^FL), purified (Ni-NTA); not shown: 8xHis, N-terminal, kept
T1 sequence: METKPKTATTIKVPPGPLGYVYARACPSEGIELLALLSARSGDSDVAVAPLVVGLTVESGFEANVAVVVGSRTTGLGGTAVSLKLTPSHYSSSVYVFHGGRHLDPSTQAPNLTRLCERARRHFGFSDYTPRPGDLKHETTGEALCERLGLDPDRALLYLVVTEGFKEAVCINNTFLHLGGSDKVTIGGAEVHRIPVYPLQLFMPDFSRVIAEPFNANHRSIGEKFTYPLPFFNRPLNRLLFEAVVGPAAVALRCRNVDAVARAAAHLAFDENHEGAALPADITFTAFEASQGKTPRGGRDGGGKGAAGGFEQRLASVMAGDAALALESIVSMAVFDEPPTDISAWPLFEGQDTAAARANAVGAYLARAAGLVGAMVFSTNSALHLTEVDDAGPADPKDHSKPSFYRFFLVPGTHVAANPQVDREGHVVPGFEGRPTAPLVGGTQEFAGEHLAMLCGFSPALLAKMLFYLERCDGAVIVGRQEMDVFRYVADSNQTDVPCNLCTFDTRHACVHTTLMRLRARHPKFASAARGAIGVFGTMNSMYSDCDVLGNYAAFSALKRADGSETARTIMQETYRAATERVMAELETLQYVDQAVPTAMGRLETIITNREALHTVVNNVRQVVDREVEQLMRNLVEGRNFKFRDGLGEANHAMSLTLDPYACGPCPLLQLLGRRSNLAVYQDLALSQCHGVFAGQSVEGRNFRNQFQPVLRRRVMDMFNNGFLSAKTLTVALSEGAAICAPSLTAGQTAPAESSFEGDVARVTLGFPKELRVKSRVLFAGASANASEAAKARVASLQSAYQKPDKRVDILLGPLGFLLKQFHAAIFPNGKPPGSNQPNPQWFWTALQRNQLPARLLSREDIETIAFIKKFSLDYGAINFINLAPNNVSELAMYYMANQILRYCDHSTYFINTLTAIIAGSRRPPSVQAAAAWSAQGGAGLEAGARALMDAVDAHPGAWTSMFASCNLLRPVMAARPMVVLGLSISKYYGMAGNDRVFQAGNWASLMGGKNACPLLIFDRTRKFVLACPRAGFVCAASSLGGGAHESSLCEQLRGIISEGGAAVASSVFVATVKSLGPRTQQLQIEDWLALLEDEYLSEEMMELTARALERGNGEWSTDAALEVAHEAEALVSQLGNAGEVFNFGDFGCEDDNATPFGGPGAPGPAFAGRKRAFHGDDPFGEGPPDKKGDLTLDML
Briefly: pull-down; Strep-tag pull-down: 50 μg Strep-tagged UL9^CTD or full-length UL9 as bait with an equal amount of ICP8; 50 mM Tris pH 8.0, 150 mM NaCl, 1 mM DTT, 0.05% Tween-20; 1 h at 4 °C; SDS-PAGE with Coomassie. The note with it: both partners purified.

Series [2] has as its target T1, full-length HSV-1 ICP8 with an …. Briefly: pull-down; GST pull-down: 50 μg GST-tagged UL9^CTD variants or C-tail peptides on GST beads with an equal amount of ICP8; 50 mM Tris pH 8.0, 150 mM NaCl, 1 mM DTT, 0.05% Tween-20; 1 h at 4 °C; SDS-PAGE with Coomassie. Conditions: both partners purified.

B1: 15-bp oriS Box I dsDNA (dsDNA)
DNA 1: GCGTTCGCACTTCGT
DNA 2: ACGAAGTGCGAACGC
As to B1, the Kd with UL9CTD wild type is 2230 ± 420 nM.

B2: Strep-tagged UL9 C-terminal domain (residues 536-851) (domain or fragment)
chain: PEASLPAQAAETEEVGLFVEKYLRSDVAPAEIVALMRNLNSLMGRTRFIYLALLEACLRVPMATRSSAIFRRIYDHYATGVIPTINVTGELELVALPPTLNVTPVWELLCLCSTMAARLHWDSAAGGSGRTFGPDDVLDLLTPHYDRYMQLVFELGHCNVTDGLLLSEEAVKRVADALSGCPPRGSVSETDHAVALFKIIWGELFGVQMAKSTQTFPGAGRVKNLTKQTIVGLLDAHHIDHSACRTHRQLYALLMAHKREFAGARFKLRVPAWGRCLRTHSSSANPNADIILEAALSELPTEAWPMMQGAVNFSTL
notes: HSV-1 UL9 C-terminal domain, residues 536-851; As the His-tagged construct, with the N-terminal 8xHis tag replaced by a Strep-tag; also called UL9^CTD; Strep-tagged UL9^CTD; source: E. coli BL21 (DE3), purified (Strep-Tactin XT, Superdex 75); not shown: Strep-tag, N-terminal, kept
B2: in series [1], the binding result is “binds”.

B3: GST-tagged UL9 C-terminal domain (residues 536-851) (domain or fragment)
chain: B2 chain
notes: HSV-1 UL9 C-terminal domain, residues 536-851; Cloned into pGEX-6P-1; also called UL9^CTD; source: E. coli BL21 (DE3), purified (Glutathione-Sepharose 4B); not shown: GST, N-terminal, kept
Turning to B3, in series [2], the binding result is recorded as “binds”.
